The chains are these.
B1: H2-Kb / Ed39 (parent complex)
chain 1: GEQVEQRPPHLSVREGDSAVIICTYTDPNSYYFFWYKQEPGAGLQLLMKVFSSTEINEGQGFTVLLNKKDKQLSLNLTAAHPGDSAVYFCATMSNYNVLYFGSGTKLTVEP
chain 2: GALVYQYPRRTICKSGTSMRMECQAVGFQATSVAWYRQSPQKTFELIALSTVNSAIKYEQNFTQEKFPISHPNLSFSSMTVLNAYLEDRGLYLCGARDGSYEQYFGPGTRLTVL
chain 3: not shown
chain 4: IQKTPQIQVYSRHPPENGKPNILNCYVTQFHPPHIEIQMLKNGKKIPKVEMSDMSFSKDWSFYILAHTEFTPTETDTYACRVKHDSMAEPKTVYWDRDM
chain 5: SIINFEKL
B2: H2-Kb / Ed8 (parent complex)
chain 1: AQSVTQPDARVTVSEGASLQLRCKYSYFGTPYLFWYVQYPRQGLQLLLKYYPGDPVVQGVNGFEAEFSKSNSSFHLRKASVHWSDWAVYFCAVSPGSGGKLTLGAGTRLQVNL
chain 2: DSGVVQSPRHIIKEKGGRSVLTCIPISGHSNVVWYQQTLGKELKFLIQHYEKVERDKGFLPSRFSVQQFDDYHSEMNMSALELEDSAMYFCASSPRASNYTFGSGTRLLVI
chain 3: not shown
chain 4: B1 chain 4
chain 5: SIINFEKL
Also: test concentration or dose not given here.

The first experiment covers variants of B1. As to the kind of experiment: % of reporter cells activated (NFAT-GFP), raw.
As for chain 5 I2V, the ratio to parent worked out at 1.09.

As to chain 5 I2H, the ratio to parent came out at 0.244.

With chain 5 I2D, the ratio to parent was 0.612. Same read-out and setting: the value for chain 5 I2A was 0.954; that for chain 5 I2Q was 0.366; that for chain 5 I2Y was 0.284. As for chain 5 I2R, the ratio to parent worked out at 0.593. On the same count and under the same terms, next, chain 5 I3F: 0.0488; chain 5 I3N: 0.314. As for chain 5 I3V, the ratio to parent amounted to 0.956.

Turning to chain 5 I3D, the ratio to parent amounted to 0.402. Same read-out and setting: next, chain 5 I3R: 0.0638. Still for that read-out and setting: the value for chain 5 I3C was 0.431. Still for that read-out and setting: the value for chain 5 I3P was 0.293; that for chain 5 I3Y was 0.0404; that for chain 5 F5M was 1.01.

In the case of chain 5 F5E, the ratio to parent stood at 0.259.

Consider chain 5 F5A, for which the ratio to parent stood at 0.973.

Turning to chain 5 F5V, the ratio to parent was 0.821. Regarding chain 5 F5I, the ratio to parent turned out to be 0.622. As to chain 5 F5D, the ratio to parent turned out to be 0.358. Still for that read-out and setting: the value for chain 5 E6D was 0.265. Still for that read-out and setting: next, chain 5 E6I: 0.00482; chain 5 E6T: 0.034; chain 5 E6Y: 0.0117. The same measure, in the same setting: next, chain 5 E6N: 0.00523; chain 5 E6C: 0.0124. For the variant chain 5 E6Q, the ratio to parent came out at 0.0946. The same measure, in the same setting: next, chain 5 E6H: 0.0355; chain 5 E6A: 0.0073. Consider chain 5 E6R, for which the ratio to parent worked out at 0.00443.

In the case of chain 5 N4L, the ratio to parent was determined as 0.196.

As for chain 5 N4W, the ratio to parent came out at 0.127. With chain 5 N4S, the ratio to parent amounted to 0.0741.

For chain 5 N4Y, the ratio to parent was 0.0203. On the same count and under the same terms, next, chain 5 N4K: 0.0498.

Consider chain 5 N4V, for which the ratio to parent worked out at 0.00191. For the variant chain 5 N4T, the ratio to parent was determined as 0.00203. On to chain 5 N4C, for which the ratio to parent is 0.0192.

On to chain 5 N4P, for which the ratio to parent was found to be 0.174.

On to chain 5 S1W, for which the ratio to parent stood at 0.0114.

In the case of chain 5 S1T, the ratio to parent was 0.00457. On the same count and under the same terms, the value for chain 5 S1E was 0.00392; that for chain 5 S1C was 0.0621.

Take chain 5 S1P: the ratio to parent was 0.00622. Same read-out and setting: the value for chain 5 S1D was 0.00365; that for chain 5 S1A was 0.0073; that for chain 5 S1Q was 0.00347. Same read-out and setting: the value for chain 5 K7F was 0.0761. Still for that read-out and setting: the value for chain 5 K7L was 0.408; that for chain 5 K7A was 0.112; that for chain 5 K7I was 0.0214.

Turning to chain 5 L8E, the ratio to parent came to 0.361. chain 5 L8K: the ratio to parent worked out at 0.485. On to chain 5 L8Q, for which the ratio to parent came to 0.617. Same read-out and setting: the value for chain 5 L8P was 0.453; that for chain 5 L8W was 0.468. Same read-out and setting: next, chain 5 L8D: 0.425. chain 5 L8N: the ratio to parent was 0.884.

Variants of B2 are the subject of another experiment. Nature of the experiment: % of reporter cells activated (NFAT-GFP), raw.
Consider chain 5 S1C, for which the ratio to parent was 1.03. Same read-out and setting: the value for chain 5 S1E was 1.28; that for chain 5 S1A was 1.28; that for chain 5 S1K was 1.02. With chain 5 S1R, the ratio to parent was found to be 0.799.

With chain 5 S1F, the ratio to parent came to 1.25. Take chain 5 S1D: the ratio to parent is 1.12. Same read-out and setting: next, chain 5 S1N: 0.821; chain 5 S1I: 0.983; chain 5 S1H: 1.3.

Consider chain 5 S1Y, for which the ratio to parent came to 1.16. Same read-out and setting: next, chain 5 N4K: 0.721; chain 5 N4C: 0.0721. On the same count and under the same terms, next, chain 5 N4I: 0.469. Still for that read-out and setting: next, chain 5 N4V: 0.0175; chain 5 N4F: 0.015; chain 5 N4D: 0.436. In the case of chain 5 N4Y, the ratio to parent worked out at 0.00468. On the same count and under the same terms, next, chain 5 N4M: 0.00281; chain 5 N4G: 0.0339.

As to chain 5 F5Q, the ratio to parent stood at 1.04.

Turning to chain 5 F5N, the ratio to parent worked out at 1.1. On the same count and under the same terms, next, chain 5 F5M: 1.25; chain 5 F5E: 0.932; chain 5 F5R: 1.19. Same read-out and setting: next, chain 5 F5S: 1.21; chain 5 F5I: 0.895; chain 5 F5H: 1.23. Take chain 5 F5A: the ratio to parent turned out to be 1.24. The same measure, in the same setting: the value for chain 5 F5Y was 1.34; that for chain 5 F5K was 1.02. Same read-out and setting: next, chain 5 L8P: 1.21; chain 5 L8Y: 1.16; chain 5 L8M: 1.13. On the same count and under the same terms, the value for chain 5 L8T was 1.1; that for chain 5 L8E was 0.853; that for chain 5 L8Q was 1.13.

Regarding chain 5 L8C, the ratio to parent turned out to be 1.04. The same measure, in the same setting: next, chain 5 L8R: 1.24. Same read-out and setting: the value for chain 5 L8A was 1.05; that for chain 5 L8N was 1.06. Same read-out and setting: next, chain 5 L8K: 1.15; chain 5 L8V: 0.877. For the variant chain 5 L8G, the ratio to parent worked out at 1.2. Still for that read-out and setting: the value for chain 5 L8S was 0.945; that for chain 5 L8W was 0.95; that for chain 5 L8H was 1.22. Same read-out and setting: the value for chain 5 I3E was 1.17; that for chain 5 I3C was 1.27. Consider chain 5 I3D, for which the ratio to parent is 1.17.

Take chain 5 I3N: the ratio to parent was 1.32. Still for that read-out and setting: next, chain 5 I3F: 0.98; chain 5 I3W: 1.03; chain 5 I3S: 1.3.

chain 5 I3Y: the ratio to parent turned out to be 0.813. On the same count and under the same terms, the value for chain 5 I3K was 1.03; that for chain 5 I3M was 1.27; that for chain 5 I3Q was 1.02. The same measure, in the same setting: the value for chain 5 I3G was 1.22; that for chain 5 I3V was 1.26; that for chain 5 I3T was 1.34. Same read-out and setting: the value for chain 5 E6I was 0.00371; that for chain 5 E6L was 0.0522; that for chain 5 E6Q was 0.777. On to chain 5 E6N, for which the ratio to parent is 0.733. Still for that read-out and setting: the value for chain 5 E6K was 1.14. As for chain 5 E6P, the ratio to parent was 0.27. Still for that read-out and setting: next, chain 5 E6S: 0.349. In the case of chain 5 E6F, the ratio to parent was determined as 0.0912. On the same count and under the same terms, next, chain 5 E6G: 1.04.

For chain 5 E6T, the ratio to parent stood at 0.127. On to chain 5 E6D, for which the ratio to parent was determined as 1.13. On the same count and under the same terms, the value for chain 5 E6H was 0.573. As for chain 5 I2V, the ratio to parent worked out at 1.41. chain 5 I2T: the ratio to parent was 1.43. On the same count and under the same terms, next, chain 5 I2S: 1.37; chain 5 I2P: 1.4; chain 5 I2F: 1.25.

As for chain 5 I2G, the ratio to parent is 1.3. The same measure, in the same setting: next, chain 5 I2H: 1.13; chain 5 I2M: 1.2; chain 5 I2A: 1.41.

As for chain 5 K7A, the ratio to parent was determined as 0.643.

Regarding chain 5 K7W, the ratio to parent was determined as 0.826. The same measure, in the same setting: the value for chain 5 K7D was 0.0673; that for chain 5 K7N was 0.809.

In the case of chain 5 K7R, the ratio to parent is 1.16. The same measure, in the same setting: the value for chain 5 K7C was 0.326. Still for that read-out and setting: next, chain 5 K7Y: 0.958; chain 5 K7T: 0.648; chain 5 K7Q: 0.662.

The values above are taken from publication PMC11480844 (2024).
